Experimental findings from PMC3254608, “Inscuteable Regulates the Pins-Mud Spindle Orientation Pathway” (PLoS ONE, 2012) are described below.

The target of assay [1] is T1, Pins TPR (residues 42-398), soluble (Drosophila, UniProt Q9VB22 42-398).
T1 construct: Partner of Inscuteable (Pins), Drosophila, residues 42-398, the TPR domain; it may be a hexahistidine fusion (pBH vector); also called Pins TPRs; source: E. coli BL21(DE3), purified
T1 sequence (looked up): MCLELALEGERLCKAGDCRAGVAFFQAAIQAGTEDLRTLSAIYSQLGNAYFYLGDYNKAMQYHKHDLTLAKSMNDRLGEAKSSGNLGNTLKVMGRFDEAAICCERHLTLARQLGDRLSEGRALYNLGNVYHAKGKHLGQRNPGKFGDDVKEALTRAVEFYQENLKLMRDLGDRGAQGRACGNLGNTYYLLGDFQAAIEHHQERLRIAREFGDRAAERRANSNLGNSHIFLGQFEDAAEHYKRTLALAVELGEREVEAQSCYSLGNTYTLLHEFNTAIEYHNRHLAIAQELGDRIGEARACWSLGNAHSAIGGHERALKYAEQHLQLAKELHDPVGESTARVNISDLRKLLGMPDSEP
Nature of the assay: fluorescence polarisation; fluorescence anisotropy, competition: Inscuteable added to a pre-formed complex of 100 nM TMR-Mud and 1 uM Pins, binding buffer, 20°C. The settings on record: both partners purified.

Assay [2] deals with TMR-Mud peptide (Mud residues 1955-1970 with an NH2-terminal cysteine, labelled with tetramethylrhodamine) (Drosophila). The assay is described as follows: fluorescence polarisation; fluorescence anisotropy, direct titration: constant 100 nM TMR-Mud, increasing ligand, binding buffer, 20°C, fit to 1:1 binding. On the technique in general: Polarisation of emitted light reports the rotation of a fluorescent probe.

B1: MBP-fusion of the central Ankyrin-repeat containing domain of Inscuteable (residues 252-600) (domain or fragment, Drosophila, UniProt Q24367 252-600, looked up)
chain: APPPYNNETVTFGATEQDESLQQQPSPLRVRSLRFTASTSTPKSGSKIAKRGKKHPEPVASWMSEQRWAGEPEVMCTLQHKSIAQEAYKNYTITTSAVCKLVRQLQQQALSLQVHFERSERVLSGLQASSLPEALAGATQLLSHLDDFTATLERRGVFFNDAKIERRRYEQHLEQIRTVSKDTRYSLERQHYINLESLLDDVQLLKRHTLITLRLIFERLVRVLVISIEQSQCDLLLRANINMVATLMNIDYDGFRSLSDAFVQNEAVRTLLVVVLDHKQSSVRALALRALATLCCAPQAINQLGSCGGIEIVRDILQVESAGERGAIERREAVSLLAQITAAWHGSEH
notes: Inscuteable (Insc), Drosophila, residues 252-600, including the central Ankyrin-repeat containing region; pMAL-c2 based vector; also called MBP-Insc; source: E. coli BL21(DE3), purified (amylose resin)
The molecule B1 showed a Kd in assay [1] of 5 µM.

B2: Pins TPR (residues 42-398), soluble (domain or fragment)
chain: T1 sequence (looked up)
Take B2: the Kd in assay [2] was 1100 nM.

The Kd is the free concentration of one partner at which half of the binding sites on the other are occupied at equilibrium, for simple one-to-one binding. Lower therefore signals tighter binding.
